For assay [1], the target named is CD38 on CD38-positive tumor lines RPMI-8226 and MM1.S (UniProt P28907 1-300, limits assumed). As to the kind of experiment: cell-based or functional assay.
Assay [2] concerns the target T1, CD38-His peptide (Thermo Fisher Scientific) (UniProt P28907 43-300, limits assumed).
T1 construct: Bought staining reagent, detected with anti-His-PE; also called CD38-His reagent; CD38-His tagged peptide; not shown: His tag
In words: flow cytometry of LV-transduced primary T cells stained with CD38-His, then anti-His PE. Background: A flow cytometer gives signals particle by particle.

B1: CAR construct LTG2099 (hScFv aCD38 CD8 TM 4-1BB CD3 zeta) (other)
chain: QVTLKESGPVLVKPTETLTLTCTFSGFSLSTSGVGVAWIRQPPGKDLEWLALIYWDDDKRYSPSLESRLTITKDTSKNQVALTMSDMDPVDTATYYCARGDYWGRLDYWGQGTLVTVSSGGGGSGGGGSGGGGSDIQLTQSPSSLSASIGDRVTITCQASEDINNYLNWYQQKPGKAPKLLIYDASNLETGVPSRFSGSGSGTDFTFTINSLQPEDIATYYCQQFDNMPLTFGGGTKLEIKAAATTTPAPRPPTPAPTIASQPLSLRPEACRPAAGGAVHTRGLDFACDIYIWAPLAGTCGVLLLSLVITLYCKRGRKKLLYIFKQPFMRPVQTTQEEDGCSCRFPEEEEGGCELRVKFSRSADAPAYQQGQNQLYNELNLGRREEYDVLDKRRGRDPEMGGKPRRKNPQEGLYNELQKDKMAEAYSEIGMKGERRRGKGHDGLYQGLSTATKDTYDALHMQALPPR
notes: Chimeric antigen receptor on transduced human primary T cells
On to B1, for which the “tumor killing of RPMI-8226 at E:T ratio of 1:5 (so in the source)” value in assay [1] is less than 10 % tumor killing. The “surface expression level, % CAR T+ (CD38-His staining)” value (“surface expression level, % CAR T+” for short) in assay [2] was more than 65%.

B2: CAR construct LTG2090 (hScFv aCD38 CD8 TM 4-1BB CD3 zeta) (other)
chain: EVQLVESGGGSVQPGGSLRLSCAASEFTFSSYWMHWVRQAPGKGLEWVAVISYDGAKKYYADSVKGRFTISRDNSKNTLYLQMNSLRAEDTAVYYCARDDGSGGFDYWGQGTLVTVSSGGGGSGGGGSGGGGSDIVMTHTPLSLSVTPGQPASISCKSSQSLLHSDGKTYLYWYLQKPGQPPQLLIYEVSNRFSGVPDRYSGSGSGTDFTLKISRVEAEDVGVYYCMQSIQLPLTFGGGTKLEIKAAATTTPAPRPPTPAPTIASQPLSLRPEACRPAAGGAVHTRGLDFACDIYIWAPLAGTCGVLLLSLVITLYCKRGRKKLLYIFKQPFMRPVQTTQEEDGCSCRFPEEEEGGCELRVKFSRSADAPAYQQGQNQLYNELNLGRREEYDVLDKRRGRDPEMGGKPRRKNPQEGLYNELQKDKMAEAYSEIGMKGERRRGKGHDGLYQGLSTATKDTYDALHMQALPPR
notes: as for B1
Regarding B2, the “tumor killing of RPMI-8226 at E:T ratio of 1:5 (so in the source)” value in assay [1] was less than 70 % tumor killing. For the same molecule, the “surface expression level, % CAR T+” value in assay [2] was more than 45%.

B3: CAR construct LTG2098 (hScFv aCD38 CD8 TM 4-1BB CD3 zeta) (other)
chain: QVQLQQSGPGLVKPSQTLSLTCVISGDSVSSNSAAWNWIRQSPSRGLEWLGRTYYRSKWHNDYAVSVESRIIVNPDTSKNQFSLQLNSVTPEDTAVYYCARDPGYFYGLDVWGQGTMVTVSSGGGGSGGGGSGGGGSNFMLTQPHSVSESPGKTVTIPCTRSSGTIADYYVQWYQQRPDSSPIIVIYDDNQRPSGVPDRFSGSIDSSSNSASLTISGLKTEDEAAYYCQSYDSTNHWVFGGGTKLTVLGAAATTTPAPRPPTPAPTIASQPLSLRPEACRPAAGGAVHTRGLDFACDIYIWAPLAGTCGVLLLSLVITLYCKRGRKKLLYIFKQPFMRPVQTTQEEDGCSCRFPEEEEGGCELRVKFSRSADAPAYQQGQNQLYNELNLGRREEYDVLDKRRGRDPEMGGKPRRKNPQEGLYNELQKDKMAEAYSEIGMKGERRRGKGHDGLYQGLSTATKDTYDALHMQALPPR
notes: as for B1
On to B3, for which the “tumor killing of RPMI-8226 at E:T ratio of 1:5 (so in the source)” value in assay [1] is less than 40 % tumor killing. In assay [2], the “surface expression level, % CAR T+” value is more than 75%.

The values are drawn from patent US20200197440A1 (LENTIGEN TECHNOLOGY, published 2020).
